Results published in IntAct's records for PubMed 26635368.

Target: spre1_human SPRED1 (UniProt Q7Z699)
Sequence (Q7Z699 whole entry): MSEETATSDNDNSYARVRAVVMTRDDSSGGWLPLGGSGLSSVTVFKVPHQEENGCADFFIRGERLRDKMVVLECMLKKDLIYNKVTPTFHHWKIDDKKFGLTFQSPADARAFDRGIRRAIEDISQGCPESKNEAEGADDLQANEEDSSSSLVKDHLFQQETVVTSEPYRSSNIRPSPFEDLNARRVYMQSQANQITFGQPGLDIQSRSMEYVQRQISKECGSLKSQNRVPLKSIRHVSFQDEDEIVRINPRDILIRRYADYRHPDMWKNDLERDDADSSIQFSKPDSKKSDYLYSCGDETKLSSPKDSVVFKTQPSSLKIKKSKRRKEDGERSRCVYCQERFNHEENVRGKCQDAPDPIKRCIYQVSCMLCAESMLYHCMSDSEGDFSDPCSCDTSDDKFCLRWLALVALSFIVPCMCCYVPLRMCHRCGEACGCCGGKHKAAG

| Substance | effect of a mutation on the interaction |
| --- | --- |
| Neurofibromin (Homo sapiens), P21359 L1511P | decreasing interaction strength |
| Neurofibromin (Homo sapiens), P21359 R1276P | with no effect |
| Neurofibromin (Homo sapiens), P21359 D1217G | decreasing interaction strength |

Target: spre1_human SPRED1 (UniProt Q7Z699)
Remark: another data set of the same source

| Substance | effect of a mutation on the interaction |
| --- | --- |
| Neurofibromin (Homo sapiens), P21359 A1202S | with no effect |
| Neurofibromin (Homo sapiens), P21359 R1204L | decreasing interaction strength |
| Neurofibromin (Homo sapiens), P21359 L1208W | decreasing interaction strength |
| Neurofibromin (Homo sapiens), P21359 R1204G | with no effect |
| Neurofibromin (Homo sapiens), P21359 D1217G | disrupting interaction strength |
| Neurofibromin (Homo sapiens), P21359 R1204W | decreasing interaction strength |

The remaining lines, values ahead:

| effect of a mutation on the interaction | Substance |
| --- | --- |
| with no effect | Neurofibromin (Homo sapiens), P21359 L1211R |
| with no effect | Neurofibromin (Homo sapiens), P21359 Q1515R |
| with no effect | Neurofibromin (Homo sapiens), P21359 G1519E |
